The source of these data is patent publication EP2481750A1.

Assay [1] addresses murine B7-DC (murine) (UniProt Q9WUL5). Kind of assay: flow cytometry competition on murine bone marrow derived DC; DC preincubated with PD-1.Ig, then stained with sHIgM12. For orientation: A flow cytometer gives signals particle by particle.
For assay [2] the target is unchanged. As to the kind of experiment: cell-based or functional assay.
Assay [3] has the same target. Kind of assay: flow cytometry on 293T cells transfected with murine B7-DC.
Assay [4] shares this target. As to the kind of experiment: flow cytometry competition on murine bone marrow derived DC; DC preincubated with sHIgM12, then stained with PD-1.Ig.

Sequence of murine B7-DC (murine) (Q9WUL5 20-247): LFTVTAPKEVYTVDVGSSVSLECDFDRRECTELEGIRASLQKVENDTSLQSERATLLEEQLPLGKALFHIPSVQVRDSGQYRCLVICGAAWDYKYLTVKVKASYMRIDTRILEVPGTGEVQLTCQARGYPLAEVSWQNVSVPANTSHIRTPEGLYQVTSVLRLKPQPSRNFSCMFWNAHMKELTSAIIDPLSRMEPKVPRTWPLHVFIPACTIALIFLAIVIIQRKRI

In the assay with murine B7-DC (murine) [1], PD-1.Ig fusion protein (Fc fusion) registered a sHIgM12 staining remaining (% of the level without PD-1) of 50%.

Turning to “sHIgM12 (pentameric human monoclonal IgM/kappa antibody, B7-DC cross-linking antibody)”, in the assay with murine B7-DC (murine) [2], the FITC-MFI (uptake of FITC-BSA by bone marrow derived DC in vitro) was 584 MFI; the FITC-MFI (uptake of FITC-OVA by splenic DC after treatment in vivo) was 116 MFI; the GFP+, CD11c+ DC recovered from draining lymph nodes, against polyclonal HIgM control amounted to 5 fold; the IL-12 p70 release by DC (ELISA), against LPS was determined as 3 fold. In the assay with murine B7-DC (murine) [2], this substance gave an ability of lymph node DC to induce an antigen-specific T cell response of 10 fold and a percentage of cellular metabolism (Alamar Blue) maintained 24 hours after cytokine withdrawal of 80%. For the same substance, in the assay with murine B7-DC (murine) [3], the percent of transfected cells stained came out at 97%. The substance also yielded a PD-1 binding remaining (% of the level without sHIgM12) with murine B7-DC (murine) [4] of 20%.
